The chains are these.
B1: TEKT4 (parent)
chain: LREKLLEAEQSLRNLEDIHMSLEK
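Also: lentivirally expressed fusions sorted by FACS into six bins by GFP to DsRed ratio, PSI derived from sequencing read proportions per bin multiplied by bin number.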

Variants of B1 are the subject of the data set. Put plainly: protein stability index of a GFP-peptide fusion (GPS, HEK-293T) (PSI 1-6); higher = more stable. As to conditions: c terminus: a fixed tail appended.
LRECLLEAEQSLRNLEDIHMSLEK: the protein stability index came to 2.54.

On to LREILLEAEQSLRNLEDIHMSLEK, for which the protein stability index came out at 2.36.

On to LREALLEAEQSLRNLEDIHMSLEK, for which the protein stability index was 2.21.

LREHLLEAEQSLRNLEDIHMSLEK: the protein stability index worked out at 3.01.

As to LREYLLEAEQSLRNLEDIHMSLEK, the protein stability index came out at 2.33.

On to LREMLLEAEQSLRNLEDIHMSLEK, for which the protein stability index is 1.76.

On to LRETLLEAEQSLRNLEDIHMSLEK, for which the protein stability index stood at 3.9.

As to LREELLEAEQSLRNLEDIHMSLEK, the protein stability index was determined as 3.17.

LRENLLEAEQSLRNLEDIHMSLEK: the protein stability index was 3.27.

LREGLLEAEQSLRNLEDIHMSLEK: the protein stability index came out at 3.45.

As to LREVLLEAEQSLRNLEDIHMSLEK, the protein stability index was found to be 2.51.

As for LREFLLEAEQSLRNLEDIHMSLEK, the protein stability index amounted to 1.43.

On to LREDLLEAEQSLRNLEDIHMSLEK, for which the protein stability index is 4.01.

As for LREWLLEAEQSLRNLEDIHMSLEK, the protein stability index worked out at 1.74.

As for LRESLLEAEQSLRNLEDIHMSLEK, the protein stability index worked out at 2.63.

As to LREQLLEAEQSLRNLEDIHMSLEK, the protein stability index was determined as 2.17.

On to LREPLLEAEQSLRNLEDIHMSLEK, for which the protein stability index came out at 3.54.

In the case of LRERLLEAEQSLRNLEDIHMSLEK, the protein stability index was found to be 2.88.

Consider LDEKLLEAEQSLRNLEDIHMSLEK, for which the protein stability index was 2.72.

On to LVEKLLEAEQSLRNLEDIHMSLEK, for which the protein stability index turned out to be 1.7.

For the variant LSEKLLEAEQSLRNLEDIHMSLEK, the protein stability index was 2.33.

For the variant LIEKLLEAEQSLRNLEDIHMSLEK, the protein stability index was determined as 2.41.

Take LLEKLLEAEQSLRNLEDIHMSLEK: the protein stability index stood at 1.93.

Regarding LGEKLLEAEQSLRNLEDIHMSLEK, the protein stability index turned out to be 2.34.

Consider LKEKLLEAEQSLRNLEDIHMSLEK, for which the protein stability index stood at 3.61.

LMEKLLEAEQSLRNLEDIHMSLEK: the protein stability index came out at 1.89.

On to LNEKLLEAEQSLRNLEDIHMSLEK, for which the protein stability index is 1.86.

As for LFEKLLEAEQSLRNLEDIHMSLEK, the protein stability index turned out to be 1.16.

On to LHEKLLEAEQSLRNLEDIHMSLEK, for which the protein stability index worked out at 2.02.

Regarding LQEKLLEAEQSLRNLEDIHMSLEK, the protein stability index came to 1.9.

Turning to LPEKLLEAEQSLRNLEDIHMSLEK, the protein stability index was 3.11.

Turning to LEEKLLEAEQSLRNLEDIHMSLEK, the protein stability index amounted to 2.43.

For LYEKLLEAEQSLRNLEDIHMSLEK, the protein stability index is 2.05.

Take LCEKLLEAEQSLRNLEDIHMSLEK: the protein stability index worked out at 1.48.

As for LTEKLLEAEQSLRNLEDIHMSLEK, the protein stability index amounted to 2.83.

Consider LRYKLLEAEQSLRNLEDIHMSLEK, for which the protein stability index came to 2.15.

As for LRCKLLEAEQSLRNLEDIHMSLEK, the protein stability index came to 1.96.

Regarding LRPKLLEAEQSLRNLEDIHMSLEK, the protein stability index stood at 2.24.

Regarding LRFKLLEAEQSLRNLEDIHMSLEK, the protein stability index came to 2.46.

As to LRDKLLEAEQSLRNLEDIHMSLEK, the protein stability index is 2.02.

LRNKLLEAEQSLRNLEDIHMSLEK: the protein stability index is 2.27.

Consider LRKKLLEAEQSLRNLEDIHMSLEK, for which the protein stability index stood at 2.1.

With LRVKLLEAEQSLRNLEDIHMSLEK, the protein stability index was 2.01.

Consider LRMKLLEAEQSLRNLEDIHMSLEK, for which the protein stability index worked out at 2.88.

Turning to LRQKLLEAEQSLRNLEDIHMSLEK, the protein stability index turned out to be 2.82.

As for LRGKLLEAEQSLRNLEDIHMSLEK, the protein stability index stood at 1.96.

For LRSKLLEAEQSLRNLEDIHMSLEK, the protein stability index came to 2.47.

For the variant LRWKLLEAEQSLRNLEDIHMSLEK, the protein stability index amounted to 1.81.

In the case of LRLKLLEAEQSLRNLEDIHMSLEK, the protein stability index came to 2.58.

LRAKLLEAEQSLRNLEDIHMSLEK: the protein stability index came to 2.29.

Take LRTKLLEAEQSLRNLEDIHMSLEK: the protein stability index is 1.63.

For the variant LRRKLLEAEQSLRNLEDIHMSLEK, the protein stability index amounted to 2.69.

In the case of LRHKLLEAEQSLRNLEDIHMSLEK, the protein stability index was 2.71.

On to LREKLPEAEQSLRNLEDIHMSLEK, for which the protein stability index came out at 5.19.

For the variant LREKLCEAEQSLRNLEDIHMSLEK, the protein stability index was 2.92.

LREKLVEAEQSLRNLEDIHMSLEK: the protein stability index was 2.65.

With LREKLAEAEQSLRNLEDIHMSLEK, the protein stability index came out at 3.11.

In the case of LREKLSEAEQSLRNLEDIHMSLEK, the protein stability index came out at 4.23.

With LREKLMEAEQSLRNLEDIHMSLEK, the protein stability index was determined as 2.83.

LREKLREAEQSLRNLEDIHMSLEK: the protein stability index came to 2.86.

In the case of LREKLFEAEQSLRNLEDIHMSLEK, the protein stability index amounted to 2.34.

LREKLWEAEQSLRNLEDIHMSLEK: the protein stability index is 2.23.

For the variant LREKLQEAEQSLRNLEDIHMSLEK, the protein stability index stood at 2.91.

Regarding LREKLDEAEQSLRNLEDIHMSLEK, the protein stability index stood at 3.54.

Turning to LREKLTEAEQSLRNLEDIHMSLEK, the protein stability index was 2.94.

With LREKLKEAEQSLRNLEDIHMSLEK, the protein stability index came to 3.31.

In the case of LREKLGEAEQSLRNLEDIHMSLEK, the protein stability index stood at 2.65.

On to LREKLHEAEQSLRNLEDIHMSLEK, for which the protein stability index was 3.27.

LREKLYEAEQSLRNLEDIHMSLEK: the protein stability index turned out to be 2.61.

On to LREKLIEAEQSLRNLEDIHMSLEK, for which the protein stability index is 1.86.

LREKLEEAEQSLRNLEDIHMSLEK: the protein stability index came out at 2.84.

With LREKLNEAEQSLRNLEDIHMSLEK, the protein stability index was 2.89.

In the case of LREKLLEFEQSLRNLEDIHMSLEK, the protein stability index was 2.52.

Consider LREKLLENEQSLRNLEDIHMSLEK, for which the protein stability index came to 4.59.

On to LREKLLECEQSLRNLEDIHMSLEK, for which the protein stability index amounted to 1.64.

In the case of LREKLLEPEQSLRNLEDIHMSLEK, the protein stability index amounted to 4.59.

In the case of LREKLLEWEQSLRNLEDIHMSLEK, the protein stability index was 1.8.

For LREKLLESEQSLRNLEDIHMSLEK, the protein stability index stood at 3.

Turning to LREKLLEQEQSLRNLEDIHMSLEK, the protein stability index came out at 2.72.

In the case of LREKLLEIEQSLRNLEDIHMSLEK, the protein stability index was determined as 1.48.

LREKLLEVEQSLRNLEDIHMSLEK: the protein stability index was determined as 2.72.

Take LREKLLEGEQSLRNLEDIHMSLEK: the protein stability index was 2.2.

Regarding LREKLLEKEQSLRNLEDIHMSLEK, the protein stability index is 4.01.

As to LREKLLEREQSLRNLEDIHMSLEK, the protein stability index was found to be 3.92.

With LREKLLELEQSLRNLEDIHMSLEK, the protein stability index stood at 1.63.

In the case of LREKLLEYEQSLRNLEDIHMSLEK, the protein stability index amounted to 3.58.

As for LREKLLETEQSLRNLEDIHMSLEK, the protein stability index is 2.61.

For the variant LREKLLEEEQSLRNLEDIHMSLEK, the protein stability index was found to be 3.99.

On to LREKLLEHEQSLRNLEDIHMSLEK, for which the protein stability index amounted to 3.67.

Regarding LREKLLEDEQSLRNLEDIHMSLEK, the protein stability index was 2.86.

For LREKLLEAAQSLRNLEDIHMSLEK, the protein stability index amounted to 2.38.

In the case of KREKLLEAEQSLRNLEDIHMSLEK, the protein stability index came out at 4.27.

For the variant HREKLLEAEQSLRNLEDIHMSLEK, the protein stability index worked out at 3.92.

Turning to MREKLLEAEQSLRNLEDIHMSLEK, the protein stability index was 3.12.

For the origin of these results see the supplement of paper PMC10567573.
